Measurements: paper PMC7889650

Molecular target: Nle-substituted 187-bp NCP (Xenopus laevis)
Assay: cryo-EM structure

## NSD2C-E1099K/T1150A (from UniProt O96028 661-1365) (domain or fragment)
  stoichiometry N: 1 NSD2 per NCP
